Literature values as cited in US20250341526A1, “NOVEL DYES” (Quantum-Si Incorporated, priority 2024, published 2025).
Changes are numbered by the printed parent chain. Names may count otherwise.

B1: PS375: ClpS amino acid recognition protein, SEQ ID NO: 8 (protein)
chain: MEAEPETKVLASIPGVGTSEPFRVVLFNDEEHSFDEVIFQIIKAVRCSRAKAEALTMEVHNSGRSIVYTGPIEQCIRVSAVLEEIELRTEIQS
B2: Escherichia coli ClpS: ClpS amino acid recognition protein, SEQ ID NO: 108 (protein, listed as Escherichia coli)
chain: MGKTNDWLDFDQLAEEKVRDALKPPSMYKVILVNDDYTPMEFVIDVLQKFFSYDVERATQLMLAVHYQGKAICGVFTAEVAETKVAMVNKYARENEHPLLCTLEKA
B3: Escherichia coli ClpS M40A: ClpS amino acid recognition protein, SEQ ID NO: 109 (protein, listed as Escherichia coli)
chain: B2 chain with M40A
B4: PS572: ClpS amino acid recognition protein, SEQ ID NO: 86 (protein, listed as Blastopirellula marina)
chain: MSSEELSLQTRPKRQPPFGVILHNDDLNSFDYVIDSIRKVFHYELEKCFQLTLEAHETGRSLLWTGTLEGAELKQELLLSCGPDPIMLDKGGLPLKVTLEELPQ
B5: PS380: ClpS amino acid recognition protein, SEQ ID NO: 13 (protein)
chain: MGDIYGESNPEEVSCIDSLSEEGNELILFNDNIHTFEYVIDCLVAICSLSYEQASNCAYIVDRKGLCTVKHGSYDELLIMYHALVEKDLKVEIR
B6: Agrobacterium tumifaciens ClpS1 (atClpS1): ClpS amino acid recognition protein, SEQ ID NO: 93 (protein, listed as Agrobacterium tumifaciens)
chain: MIAEPICMQGEGDGEDGGTNRGTSVITRVKPKTKRPNLYRVLLLNDDYTPMEFVIHILERFFQKDREAATRIMLHVHQHGVGECGVFTYEVAETKVSQVMDFARQHQHPLQCVMEKK
B7: PS218: ClpS amino acid recognition protein, SEQ ID NO: 98 (protein)
chain: B6 chain with M51F, E52Q, T70W, M73T
B8: atClpS1 C7S, C84S, C112S: ClpS amino acid recognition protein, SEQ ID NO: 104 (protein)
chain: B6 chain with C7S, C84S, C112S
B9: atClpS1 C7S: ClpS amino acid recognition protein, SEQ ID NO: 103 (protein)
chain: B6 chain with C7S
B10: PS573: ClpS amino acid recognition protein, SEQ ID NO: 87 (protein, listed as Leptospira fluminis)
chain: MSQTPVIEETTVKDPVKTGGPWKVVLWDDDEHTYDYVIEMLMEVCVMTMEQAFHHAVEVDTQKKTVVYSGEFEHAEHIQELILEYGPDPRMAVSKGSMSATLEKS
B11: Synechococcus elongatus ClpS1: ClpS amino acid recognition protein, SEQ ID NO: 105 (protein, listed as Synechococcus elongatus)
chain: MAVETIQKPETTTKRKIAPRYRVLLHNDDFNPMEYVVMVLMQTVPSLTQPQAVDIMMEAHTNGTGLVITCDIEPAEFYCEQLKSHGLSSSIEPDD
B12: PS577: ClpS amino acid recognition protein, SEQ ID NO: 91 (protein, listed as Tuwongella immobilis)
chain: MSASSSQPGTTTKPDLDIQPRLLPPFHVILENDEFHSMEFVIDTLRKVLGVSIERAYQLMMTAHESGQAIIWTGPKEVAELKYEQVIGFHEKRSDGRDLGPLGCRIEPAV
B13: PS578: ClpS amino acid recognition protein, SEQ ID NO: 92 (protein, listed as Planctomycetes bacterium)
chain: MSGTVVESKPRNSTQLAPRWKVIVHDDPVTTFDFVLGVLRRVFAKPPGEARRITREAHDTGSALVDVLALEQAEFRRDQAHSLARAEGFPLTLTLEPAD
B14: PS376: ClpS amino acid recognition protein, SEQ ID NO: 9 (protein)
chain: MPTNDLDLLEKQDVKIERPKMYQVVMYNDDFTPFDFVVAVLMQFFNKGMDEATAIMMQVHMQGKGICGVFPKDIAETKATEVMKWAKVEQHPLRLQVEAQA
B15: PS574: ClpS amino acid recognition protein, SEQ ID NO: 88 (protein, listed as Gemmata obscuriglobus)
chain: MANATPTPDVVPEEETETRTRRQPPYAVVLHNDDTNTMDFVVTVLRKVFGYTVEKCVELMLEAHTQGKVAVWIGALEVAELKADQIKSFGPDPHVTKNGHPLGVTVEPAA
B16: Synechococcus elongatus ClpS2: ClpS amino acid recognition protein, SEQ ID NO: 106 (protein, listed as Synechococcus elongatus)
chain: MSPQPDESVLSILGVPRPCVKKRSRNDAFVLTVLTCSLQAIAAPATAPGTTTTRVRQPYPHFRVIVLDDDVNTFQHVAECLLKYIPGMTGDRAWDLTNQVHYEGAATVWSGPQEQAELYHEQLRREGLTMAPLEAA
B17: PS575: ClpS amino acid recognition protein, SEQ ID NO: 89 (protein, listed as Leptospira kmetyi)
chain: MASTQTPDLNEITEESTKSTGGPWRVVLWDDNEHTYEYVIEMLMEICTMTVEKAFLHAVQVDQEKRTVVFSGEFEHAEHVQERILTYGADPRMSNSKGSMSATLEK
B18: PS576: ClpS amino acid recognition protein, SEQ ID NO: 90 (protein)
chain: B17 chain with M44V, T48M, Q63K, V69D, F74L, T86N, K106R
modifications: Leptospira interrogans
B19: PS570: ClpS amino acid recognition protein, SEQ ID NO: 84 (protein, listed as Leptospira congkakensis)
chain: MTGAGASQPSILEETEVRPRLSDGPWKVVLWDDDFHTYEYVIEMLMDVCQMPWEKAFQHAVEVDTRKKTIVFSGELEHAEFVHERILNYGPDPRMGSSKGSMTATLEQ
B20: PS571: ClpS amino acid recognition protein, SEQ ID NO: 85 (protein, listed as Leptospira meyeri)
chain: B19 chain with G3S, A4S, V17R, R18K, S73F, S97T, Q108K
B21: Thermosynechococcus elongatus ClpS: ClpS amino acid recognition protein, SEQ ID NO: 107 (protein, listed as Thermosynechococcus elongatus)
chain: MPQERQQVTRKHYPNYKVIVLNDDFNTFQHVAACLMKYIPNMTSDRAWELTNQVHYEGQAIVWVGPQEQAELYHEQLLRAGLTMAPLEPE
B22: Agrobacterium tumifaciens ClpS2 (atClpS2): ClpS amino acid recognition protein, SEQ ID NO: 94 (protein, listed as Agrobacterium tumifaciens)
chain: MSDSPVDLKPKPKVKPKLERPKLYKVMLLNDDYTPREFVTVVLKAVFRMSEDTGRRVMMTAHRFGSAVVVVCERDIAETKAKEATDLGKEAGFPLMFTTEPEE
B23: atClpS2-V1 + C72S: ClpS amino acid recognition protein, SEQ ID NO: 101 (protein)
chain: B22 chain with R36M, E37S, C72S
B24: atClpS2 C72S: ClpS amino acid recognition protein, SEQ ID NO: 100 (protein)
chain: B22 chain with C72S
B25: Plasmodium falciparum ClpS: ClpS amino acid recognition protein, SEQ ID NO: 110 (protein, listed as Plasmodium falciparum)
chain: MFKDLKPFFLCIILLLLLIYKCTHSYNIKNKNCPLNFMNSCVRINNVNKNTNISFPKELQKRPSLVYSQKNFNLEKIKKLRNVIKEIKKDNIKEADEHEKKEREKETSAWKVILYNDDIHNFTYVTDVIVKVVGQISKAKAHTITVEAHSTGQALILSTWKSKAEKYCQELQQNGLTVSIIHESQLKDKQKK
B26: PS382: ClpS amino acid recognition protein, SEQ ID NO: 15 (protein)
chain: MSDSPVIKEIKKDNIKEADEHEKKEREKETSAWKVILYNDDIHNFTYVTDVIVKVVGQISKAKAHTITVEAHSTGQALILSTWKSKAEKYCQELQQNGLTVSIIHESQLKDKQKK
B27: PS388: ClpS amino acid recognition protein, SEQ ID NO: 16 (protein)
chain: MVTTLSADVYGMATAPTVAPERSNQVVRKTYPNYKVIVLNDDFNTFQHVAECLMKYIPGMSSDRAWDLTNQVHYEGQAIVWVGPQEPAELYHQQLRRAGLTMAPLEAA

Test system: amino acid at a terminal position of a polypeptide
Settings: Table 1, ClpS proteins; amino acid at terminal position; inferred from literature and/or demonstrated by the inventors; cited from earlier work

Molecule	Binding Pref.
B1	F, L
B2	F, W, Y, L
B3	F, W, Y, L
B4	I, L, V
B5	F, W
B6	F, W, Y, L
B7	F, W, Y, L
B8	F, W, Y, L
B9	F, W, Y, L
B10	I, L, V
B11	F, W, Y
B12	I, L, V
B13	I, L, V
B14	F, W, L
B15	I, L, V
B16	F, W, Y, L
B17	I, L, V
B18	I, L, V
B19	I, L, V
B20	I, L, V
B21	F, W, Y, L
B22	F, W, Y
B23	F, W, Y
B24	F, W, Y
B25	F, W, Y, L
B26	F, Y, W, L
B27	F, Y, L
